Assay: soluble on expression in E. coli; label from the status in PepcDB or PDB records

Sequence | soluble on expression in E. coli
TVKSGLILQSISNDVYHNLAVEDWIHDHMNLEGKPVLFLWRNSPTVVIGRHQNPWQECNLNLMREEGVKLARRRSGGGTVYHDMGNINLTFFTTKKKYDRMENLKLVVRALKAVHPHLDVQATKRFDLLLDGQFKISGTASKIGRNAAYHHCTLLCGTDGTFLSSLLKSPYQGIRSNATASTPALVKNLMEKDPTLTCEVVINAVATEYATSHQIDNHIHLINPTDETVFPGINSKAIELQTWEWIYGKTPKFSVDTSFTVLHEQSHVEIKVFIDVKNGRIEVCNIEAPDHWLPLEICDQLNSSLIGSKFSPIETTVLTSILHRTYPGDDELHSKWNILCEKIKGIM | soluble
MSLADKLSLETLESWLWESANILRGSIDSSDFKNYIFGLLFLKRYNDVFDERVTKLREEENLSYGEAQEEIEDKWGKYPISARWFDLISRTENIGEALDKAFATIEANNPELQHVLTATQYGDKRVLADATLQRLLRHFNQYKLGNDDLYKADMLGDAYEYLIKQFADDAGKKGGEFYTPKAVVQLVVELIDPRPGHSVYDPTCGSGGMLVESAHHVSGLPDGTLMGKPNVLLYGQEKNLGTWAIAKLNLYLHNMHASIERGDTLVEPKHLDGDYLKTFDRVIANPPFSAKSWWTPLELSNENEQENGKKVKAPNYKQVSDPYGRLVYGVPPRGYADLAFAQHMLASLKADGRMGVILPHGVLFRSGEEGKIREGLLFGTGAASGNQPGDVIEAIVGLPSALFYNTGIPACVLILNKQKPSALKDKVIIIDGSRDYLEGKAQNSLHAEDILRIVSTHKAAFEQQVEVENYCRLVTLDEIRSNDGNLNIVRYIDNGESDEVVNVAATLAHMATLAKEEAQIDQRLNRYLMELGLLETGEGHHHHHH | soluble
MAKLENPILMAKIGGAQGLRGEVRVSTYTDDPMALGDYGNLVTADGRVFEILEVREGKNVVVVRFRGINDRNAAESLNGLELFIERDNLPDDELDDDEFYYADLEGLEAVDAEGKSYGAVSAVYDFGAGDLLELKGAGRRPALIPFSEAAVLEIDLEAGRILIDPMAAGLIDNPDDKDQNGMSPFGKKLEHHHHHH | not soluble
MSESSVTTEIVVRLPKQMVTELDGIGKQENKNRHELICQATQLLLRQHKTKKRYQHESMRRGYIEMGKINLGIASEAFLAEYEAAHTVERLVSGG | not soluble
MEEDQEEPPSSSTSSESPEVVLKAPKAPTRRRKNSKKDRRQDMEVDDGEKESTAQYCKGFYDALRVMQTTNKYEFTGGAVSSPVLPVLQTAAFSPITPASASDMHTIVMSLLGNTPITSGPSIAPLSSPTLLPLVTSGDLDDLSMKILASSAIPGPPIISSSNSPDSSTTAVTTSQITAFQPLLNNFVSSTTASTSRPDKLNLTPPQQSAEIYAFNGVNSDDSDGGLDSRSASRCG | not soluble
SNADRRYKWQTVVSEQLVGAGFNEILNNSLTAGSYYEGLKSHPREMAVELMNPLSQELNCMRQTLLFGGLETLSHNLRRKHLSLYLFEWGKCYRFHAAKRTDETPLAAYAEDDRLGIWICGQRVHNSWAHPEEPTSVFELKAVVEQVLCRVGIETGAYTLKTADNDLYASAMEVKTRSGKLLGTFGTVSTELIKRFEIEQPVYFAELLWDALM | soluble
MSLRNVLQDYLDEHSFRVVVKKKKNYLTYEGLQDRYAYILKSGIIKTSVISKDGREFNLRYINNLEIVSLLRDEYSEFIDAPFNIRIESPQAELYQIDRVQFWRDINNSKDLQMYVKEYYRDRLMHSMKKMQQMLMNGKFGAVCTQIYEMYDSFGVETEEGILIDFVVTNEEIAHFCGITSASSVNRMMQQLKELGAIELRNRKILIKDLDMIRDNEGGSHHHHHH | soluble
MDLGEFPAPDPSVLVQNFNISDFNGKWYITSGLNPTFDAFDCQLHEFHTEGDNKLVGNISWRIKTLDSGFFTRSAVQKFVQDPNQPGVLYNHDNEYLHYQDDWYILSSKIENKPEDYIFVYYRGRNDAWDGYGGAVVYTRSSVLPNSIIPELEKAAKSIGRDFSTFIRTDNTCGPEPRSHHHHHH | soluble
MHHHHHHSSGVDLGTENLYFQSMASESETLNPSARIMTFYPTMEEFRNFSRYIAYIESQGAHRAGLAKVVPPKEWKPRASYDDIDDLVIPAPIQQLVTGQSGLFTQYNIQKKAMTVREFRKIANSDKYCTPRYSEFEELERKYWKNLTFNPPIYGADVNGTLYEKHVDEWNIGRLRTILDLVEKESGITIEGVNTPYLYFGMWKTSFAWHTEDMDLYSINYLHFGEPKSWYSVPPEHGKRLERLAKGFFPGSAQSCEAFLRHKMTLISPLMLKKYGIPFDKVTQEAGEFMITFPYGYHAGFNHGFNCAESTNFATRRWIEYGKQAVLCSCRKDMVKISMDVFVRKFQPERYKLWKAGKDNTVIDHTLPTPEAAEFLKESEL | soluble

Reference: the DeepSol protein solubility set
